Source: paper PMC7043065 (Cell reports, 2020)

Molecular target: C-X-C motif chemokine 12 (CXCL12) (mouse (endogenous in BM-MSC of C57BL/6 …, UniProt P40224 22-93))
Assay: cross-linking + co-IP

Chain of C-X-C motif chemokine 12 (CXCL12) (mouse (P40224 22-93): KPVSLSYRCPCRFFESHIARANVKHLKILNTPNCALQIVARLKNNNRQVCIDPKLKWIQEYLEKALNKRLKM

molar interaction ratio of CXCL12/CCL2: > 1
B1: chemokine ligand 2 (CCL2) (natural protein)
chain: not shown
